For eleven molecules, He/Con_2aR results are on record in patent US20150344570A1 (published 2015).

The assay deals with T1, FcγRIIa R (human, UniProt P12318 34-217).
T1 construct: extracellular domain; also called FcgRIIa R type; 2aR
T1 sequence (looked up): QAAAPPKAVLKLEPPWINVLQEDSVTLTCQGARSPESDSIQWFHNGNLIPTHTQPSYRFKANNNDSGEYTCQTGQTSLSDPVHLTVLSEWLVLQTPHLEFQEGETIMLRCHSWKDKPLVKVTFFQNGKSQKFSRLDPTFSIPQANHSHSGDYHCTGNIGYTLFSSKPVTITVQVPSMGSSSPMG
In words: SPR (Biacore), captured antibody, FcγR as analyte; relative binding activity. (Surface plasmon resonance follows binding to a sensor surface in real time, without labels.)

B1: GpH7-A5/GpH7-B3 variant K326_18N/GpL16-k0 (antibody, human IgG1, kappa)
heavy 1: not shown
heavy 2: not shown
light: DIVMTQSPLSLPVTPGEPASISCQASESLVHSNRNTYLHWYLQKPGQSPQLLIYKVSNRFSGVPDRFSGSGSGTDFTLKISRVEAEDVGVYYCSQNTHVPPTFGQGTKVEIERTVAAPSVFIFPPSDEQLKSGTASVVCLLNNFYPREAKVQWKVDNALQSGNSQESVTEQDSKDSTYSLSSTLTLSKADYEKHKVYACEVTHQGLSSPVTKSFNRGEC
notes: also called He Ab K326_18N
With B1, the He/Con_2aR was 115 % (GpH7-A5/GpH7-B3/GpL16-k0 = 100).

B2: GpH7-A5/GpH7-B3 variant I336_06M/GpL16-k0 (antibody, human IgG1, kappa)
heavy 1: not shown
heavy 2: not shown
light: DIVMTQSPLSLPVTPGEPASISCQASESLVHSNRNTYLHWYLQKPGQSPQLLIYKVSNRFSGVPDRFSGSGSGTDFTLKISRVEAEDVGVYYCSQNTHVPPTFGQGTKVEIERTVAAPSVFIFPPSDEQLKSGTASVVCLLNNFYPREAKVQWKVDNALQSGNSQESVTEQDSKDSTYSLSSTLTLSKADYEKHKVYACEVTHQGLSSPVTKSFNRGEC
notes: also called He Ab I336_06M
In the case of B2, the He/Con_2aR was 106 % (GpH7-A5/GpH7-B3/GpL16-k0 = 100).

B3: GpH7-A5/GpH7-B3 variant K334_04F/GpL16-k0 (antibody, human IgG1, kappa)
heavy 1: not shown
heavy 2: not shown
light: DIVMTQSPLSLPVTPGEPASISCQASESLVHSNRNTYLHWYLQKPGQSPQLLIYKVSNRFSGVPDRFSGSGSGTDFTLKISRVEAEDVGVYYCSQNTHVPPTFGQGTKVEIERTVAAPSVFIFPPSDEQLKSGTASVVCLLNNFYPREAKVQWKVDNALQSGNSQESVTEQDSKDSTYSLSSTLTLSKADYEKHKVYACEVTHQGLSSPVTKSFNRGEC
notes: also called He Ab K334_04F
For B3, the He/Con_2aR was 110 % (GpH7-A5/GpH7-B3/GpL16-k0 = 100).

B4: GpH7-A5/GpH7-B3 variant K326_15Y/GpL16-k0 (antibody, human IgG1, kappa)
heavy 1: not shown
heavy 2: not shown
light: DIVMTQSPLSLPVTPGEPASISCQASESLVHSNRNTYLHWYLQKPGQSPQLLIYKVSNRFSGVPDRFSGSGSGTDFTLKISRVEAEDVGVYYCSQNTHVPPTFGQGTKVEIERTVAAPSVFIFPPSDEQLKSGTASVVCLLNNFYPREAKVQWKVDNALQSGNSQESVTEQDSKDSTYSLSSTLTLSKADYEKHKVYACEVTHQGLSSPVTKSFNRGEC
notes: also called He Ab K326_15Y
Turning to B4, the He/Con_2aR is 136 % (GpH7-A5/GpH7-B3/GpL16-k0 = 100).

B5: GpH7-A5/GpH7-B3 variant I336_08L/GpL16-k0 (antibody, human IgG1, kappa)
heavy 1: not shown
heavy 2: not shown
light: DIVMTQSPLSLPVTPGEPASISCQASESLVHSNRNTYLHWYLQKPGQSPQLLIYKVSNRFSGVPDRFSGSGSGTDFTLKISRVEAEDVGVYYCSQNTHVPPTFGQGTKVEIERTVAAPSVFIFPPSDEQLKSGTASVVCLLNNFYPREAKVQWKVDNALQSGNSQESVTEQDSKDSTYSLSSTLTLSKADYEKHKVYACEVTHQGLSSPVTKSFNRGEC
notes: also called He Ab I336_08L
For B5, the He/Con_2aR is 110 % (GpH7-A5/GpH7-B3/GpL16-k0 = 100).

B6: GpH7-A5/GpH7-B3 variant K326_12R/GpL16-k0 (antibody, human IgG1, kappa)
heavy 1: not shown
heavy 2: not shown
light: DIVMTQSPLSLPVTPGEPASISCQASESLVHSNRNTYLHWYLQKPGQSPQLLIYKVSNRFSGVPDRFSGSGSGTDFTLKISRVEAEDVGVYYCSQNTHVPPTFGQGTKVEIERTVAAPSVFIFPPSDEQLKSGTASVVCLLNNFYPREAKVQWKVDNALQSGNSQESVTEQDSKDSTYSLSSTLTLSKADYEKHKVYACEVTHQGLSSPVTKSFNRGEC
notes: also called He Ab K326_12R
As for B6, the He/Con_2aR is 103 % (GpH7-A5/GpH7-B3/GpL16-k0 = 100).

B7: GpH7-A5/GpH7-B3 variant K326_03V/GpL16-k0 (antibody, human IgG1, kappa)
heavy 1: not shown
heavy 2: not shown
light: DIVMTQSPLSLPVTPGEPASISCQASESLVHSNRNTYLHWYLQKPGQSPQLLIYKVSNRFSGVPDRFSGSGSGTDFTLKISRVEAEDVGVYYCSQNTHVPPTFGQGTKVEIERTVAAPSVFIFPPSDEQLKSGTASVVCLLNNFYPREAKVQWKVDNALQSGNSQESVTEQDSKDSTYSLSSTLTLSKADYEKHKVYACEVTHQGLSSPVTKSFNRGEC
notes: also called He Ab K326_03V
On to B7, for which the He/Con_2aR is 141 % (GpH7-A5/GpH7-B3/GpL16-k0 = 100).

B8: GpH7-A5/GpH7-B3 variant I336_18N/GpL16-k0 (antibody, human IgG1, kappa)
heavy 1: not shown
heavy 2: not shown
light: DIVMTQSPLSLPVTPGEPASISCQASESLVHSNRNTYLHWYLQKPGQSPQLLIYKVSNRFSGVPDRFSGSGSGTDFTLKISRVEAEDVGVYYCSQNTHVPPTFGQGTKVEIERTVAAPSVFIFPPSDEQLKSGTASVVCLLNNFYPREAKVQWKVDNALQSGNSQESVTEQDSKDSTYSLSSTLTLSKADYEKHKVYACEVTHQGLSSPVTKSFNRGEC
notes: also called He Ab I336_18N
Turning to B8, the He/Con_2aR is 104 % (GpH7-A5/GpH7-B3/GpL16-k0 = 100).

B9: GpH7-A5/GpH7-B3 variant I332_14T/GpL16-k0 (antibody, human IgG1, kappa)
heavy 1: not shown
heavy 2: not shown
light: DIVMTQSPLSLPVTPGEPASISCQASESLVHSNRNTYLHWYLQKPGQSPQLLIYKVSNRFSGVPDRFSGSGSGTDFTLKISRVEAEDVGVYYCSQNTHVPPTFGQGTKVEIERTVAAPSVFIFPPSDEQLKSGTASVVCLLNNFYPREAKVQWKVDNALQSGNSQESVTEQDSKDSTYSLSSTLTLSKADYEKHKVYACEVTHQGLSSPVTKSFNRGEC
notes: also called He Ab I332_14T
Consider B9, for which the He/Con_2aR was 105 % (GpH7-A5/GpH7-B3/GpL16-k0 = 100).

B10: GpH7-A5/GpH7-B3 variant K334_10E/GpL16-k0 (antibody, human IgG1, kappa)
heavy 1: not shown
heavy 2: not shown
light: DIVMTQSPLSLPVTPGEPASISCQASESLVHSNRNTYLHWYLQKPGQSPQLLIYKVSNRFSGVPDRFSGSGSGTDFTLKISRVEAEDVGVYYCSQNTHVPPTFGQGTKVEIERTVAAPSVFIFPPSDEQLKSGTASVVCLLNNFYPREAKVQWKVDNALQSGNSQESVTEQDSKDSTYSLSSTLTLSKADYEKHKVYACEVTHQGLSSPVTKSFNRGEC
notes: also called He Ab K334_10E
With B10, the He/Con_2aR was 106 % (GpH7-A5/GpH7-B3/GpL16-k0 = 100).

B11: GpH7-A5/GpH7-B3 variant K334_02A/GpL16-k0 (antibody, human IgG1, kappa)
heavy 1: not shown
heavy 2: not shown
light: DIVMTQSPLSLPVTPGEPASISCQASESLVHSNRNTYLHWYLQKPGQSPQLLIYKVSNRFSGVPDRFSGSGSGTDFTLKISRVEAEDVGVYYCSQNTHVPPTFGQGTKVEIERTVAAPSVFIFPPSDEQLKSGTASVVCLLNNFYPREAKVQWKVDNALQSGNSQESVTEQDSKDSTYSLSSTLTLSKADYEKHKVYACEVTHQGLSSPVTKSFNRGEC
notes: also called He Ab K334_02A
As to B11, the He/Con_2aR is 105 % (GpH7-A5/GpH7-B3/GpL16-k0 = 100).
